Measurements as given in US6495144 (Johns Hopkins, dated 2002).
Numbering of substitutions follows the chain as printed.

B1: type B EBNA2 comprising amino acids 216-392 (other)
chain: GHQLSLPPHPPPHQSTPHCSSDSTGLPPPPTSYSIPSMTLSPEPLPPPAAPAHPLPGVIYDQQALPPTPGPPWWPPVRDPTPTTQTPPTNTKQGPDQGQGRGRWRGRGRSKGRGRMHKLPEPRRPGPDTSSPSMPQLSPVVSLHQGQGPENSPTPGPSTAGPVCRVTPSATPDISPI
notes: range 216-392; Prepared by in vitro transcription and translation; gene provided by Dr. Elliott Kieff; also called type B peptide
B2: wild-type EBNA2 peptide comprised of amino acids 252-425 (type A) (other)
chain: LHVPDQSMHPLTHQSTPNDPDSPEPRSPTVFYNIPPMPLPPSQLPPPAAPAQPPPGVINDQQLHHLPSGPPWWPPICDPPQPSKTQGQSRGQSRGRGRGRGRGRGKGKSRDKQRKPGGPWRPEPNTSSPSMPELSPVLGLHQGQGAGDSPTPGPSNAAPVCRNSHTATPNVSPI
notes: range 252-425; In vitro transcribed and translated, labeled with 35S-methionine; also called aa252-425 (wild-type); E2 252-425
B3: EBNA2 252-425 LGL389SRT (CR7) (other)
chain: B2 chain with L138S, G139R, L140T
notes: range 252-425; In vitro transcribed and translated; also called CR7 mutation
B4: EBNA2 252-425 SR360VD (PKC) (other)
chain: B2 chain with S109V, R110D
notes: range 252-425; In vitro transcribed and translated; also called PKC mutation
B5: EBNA2 252-425 GP320SR (CR6) (other)
chain: B2 chain with G69S, P70R
notes: range 252-425; In vitro transcribed and translated
B6: EBNA2 252-425 WW323SR (CR6) (other)
chain: B2 chain with W72S, W73R
notes: as for B5
B7: EBNA2 252-425 PI326SR (CR6) (other)
chain: B2 chain with P75S, I76R
notes: as for B5

What was measured:
[1] = biological target: T1, CBF1/RBPJk (UniProt Q06330 1-500); test: EMSA with two-fold increases in peptide amount, against type A EBNA2 252-425
T1 construct: also called CBF1 tethering protein
T1 sequence (Q06330 whole entry): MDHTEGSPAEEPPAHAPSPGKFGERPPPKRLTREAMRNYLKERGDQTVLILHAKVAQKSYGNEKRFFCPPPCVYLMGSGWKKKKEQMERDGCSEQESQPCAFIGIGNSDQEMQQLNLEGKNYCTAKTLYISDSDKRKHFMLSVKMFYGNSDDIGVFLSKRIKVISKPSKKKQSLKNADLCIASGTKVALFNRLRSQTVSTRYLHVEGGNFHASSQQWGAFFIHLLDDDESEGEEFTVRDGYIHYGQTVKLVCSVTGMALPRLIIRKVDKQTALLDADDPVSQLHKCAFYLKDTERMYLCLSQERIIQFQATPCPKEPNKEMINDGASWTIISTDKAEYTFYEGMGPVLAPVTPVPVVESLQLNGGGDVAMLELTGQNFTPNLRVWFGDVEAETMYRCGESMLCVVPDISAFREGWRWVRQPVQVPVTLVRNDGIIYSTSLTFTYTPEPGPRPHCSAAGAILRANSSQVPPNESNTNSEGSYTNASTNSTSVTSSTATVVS

[2] = biological target: T1, CBF1/RBPJk; test: EMSA supershift with heparin-agarose purified CBF1 and Cp CBF1 site probe; phosphoimager, relative to wild-type EBNA2(252-425)
[3] = biological target: T1, CBF1/RBPJk; test: EMSA, against wild-type EBNA2 252-425

Row | Binder | fold more peptide required than type A EBNA2 for conversion of all the CBF1 to the supershifted complex [1] [fold] | % Complex formation [2] [%] | fold reduction in the amounts of EBNA2/CBF1 complex formed [3] [fold]
1 | B1 | 2 | – | –
2 | B2 | – | 100 | –
3 | B3 | – | 50 | ~2
4 | B4 | – | 60 | ~2
5 | B5 | – | 90 | –
6 | B6 | – | < 1 | –
7 | B7 | – | 5 | –
